The source of these data is patent EP3583122A1 (dated 2019).

Experiment in all cases: cell-based or functional assay
The target of experiment [1] is T1, TAFV GP on VSV pseudotype particles (Tai Forest virus (TAFV), UniProt Q66810 33-676).
T1 sequence: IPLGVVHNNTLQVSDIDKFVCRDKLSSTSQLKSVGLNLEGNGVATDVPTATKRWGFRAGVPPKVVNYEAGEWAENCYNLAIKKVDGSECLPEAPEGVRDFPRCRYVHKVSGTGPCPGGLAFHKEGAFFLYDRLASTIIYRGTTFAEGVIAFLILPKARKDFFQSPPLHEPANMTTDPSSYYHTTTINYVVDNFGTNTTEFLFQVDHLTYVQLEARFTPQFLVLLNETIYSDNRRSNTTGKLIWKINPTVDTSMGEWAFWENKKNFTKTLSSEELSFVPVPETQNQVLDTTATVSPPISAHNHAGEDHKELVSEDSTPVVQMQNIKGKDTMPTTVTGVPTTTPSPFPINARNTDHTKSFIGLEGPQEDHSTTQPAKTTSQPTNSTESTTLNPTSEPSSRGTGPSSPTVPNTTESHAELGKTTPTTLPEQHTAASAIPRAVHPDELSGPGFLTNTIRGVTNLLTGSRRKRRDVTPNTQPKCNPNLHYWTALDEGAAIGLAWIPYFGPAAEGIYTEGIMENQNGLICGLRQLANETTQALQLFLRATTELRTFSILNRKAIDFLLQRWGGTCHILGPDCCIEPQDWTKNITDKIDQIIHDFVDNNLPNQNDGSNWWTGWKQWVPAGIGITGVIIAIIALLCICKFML

Experiment [2] concerns the target T2, RESTV GP on rVSV particles (Reston virus (RESTV), UniProt Q66799 34-677).
T2 sequence: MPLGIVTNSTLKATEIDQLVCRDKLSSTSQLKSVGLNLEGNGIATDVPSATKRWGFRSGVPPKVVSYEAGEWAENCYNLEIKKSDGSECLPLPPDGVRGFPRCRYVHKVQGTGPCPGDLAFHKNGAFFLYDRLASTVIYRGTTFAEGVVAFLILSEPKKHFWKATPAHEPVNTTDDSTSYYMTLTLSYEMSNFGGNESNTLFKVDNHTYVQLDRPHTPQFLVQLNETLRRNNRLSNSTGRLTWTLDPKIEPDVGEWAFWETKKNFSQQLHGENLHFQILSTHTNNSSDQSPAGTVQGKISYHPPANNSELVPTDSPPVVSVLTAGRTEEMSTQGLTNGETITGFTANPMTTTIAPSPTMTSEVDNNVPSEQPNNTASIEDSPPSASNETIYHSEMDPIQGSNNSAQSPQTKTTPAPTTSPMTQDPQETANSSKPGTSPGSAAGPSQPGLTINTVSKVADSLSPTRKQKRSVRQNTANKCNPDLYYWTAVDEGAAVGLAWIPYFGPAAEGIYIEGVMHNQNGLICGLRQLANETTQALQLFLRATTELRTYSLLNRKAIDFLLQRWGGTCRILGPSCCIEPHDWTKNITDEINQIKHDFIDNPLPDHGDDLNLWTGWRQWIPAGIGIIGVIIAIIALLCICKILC

Experiment [3] deals with T3, SUDV GP on rVSV particles (Sudan virus (SUDV), UniProt Q66814 33-676).
T3 sequence: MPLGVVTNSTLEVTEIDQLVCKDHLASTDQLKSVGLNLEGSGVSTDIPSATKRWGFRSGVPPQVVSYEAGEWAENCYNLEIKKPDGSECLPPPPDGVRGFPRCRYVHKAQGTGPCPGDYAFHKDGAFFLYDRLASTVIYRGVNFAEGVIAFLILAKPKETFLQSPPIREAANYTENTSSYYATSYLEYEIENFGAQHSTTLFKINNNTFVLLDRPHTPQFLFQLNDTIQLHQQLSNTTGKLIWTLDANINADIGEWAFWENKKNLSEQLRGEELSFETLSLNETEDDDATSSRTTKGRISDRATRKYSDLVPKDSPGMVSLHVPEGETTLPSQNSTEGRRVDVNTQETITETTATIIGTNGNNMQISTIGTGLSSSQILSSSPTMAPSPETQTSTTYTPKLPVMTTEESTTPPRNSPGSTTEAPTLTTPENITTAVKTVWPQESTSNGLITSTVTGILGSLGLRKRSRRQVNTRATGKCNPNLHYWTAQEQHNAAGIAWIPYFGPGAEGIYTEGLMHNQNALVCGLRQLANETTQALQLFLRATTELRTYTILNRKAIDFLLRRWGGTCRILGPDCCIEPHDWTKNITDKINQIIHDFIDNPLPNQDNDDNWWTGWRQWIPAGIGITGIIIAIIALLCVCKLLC

In experiment [4] the target is T4, EBOV GP on rVSV particles (Ebola virus (EBOV), UniProt Q05320 33-676).
T4 sequence: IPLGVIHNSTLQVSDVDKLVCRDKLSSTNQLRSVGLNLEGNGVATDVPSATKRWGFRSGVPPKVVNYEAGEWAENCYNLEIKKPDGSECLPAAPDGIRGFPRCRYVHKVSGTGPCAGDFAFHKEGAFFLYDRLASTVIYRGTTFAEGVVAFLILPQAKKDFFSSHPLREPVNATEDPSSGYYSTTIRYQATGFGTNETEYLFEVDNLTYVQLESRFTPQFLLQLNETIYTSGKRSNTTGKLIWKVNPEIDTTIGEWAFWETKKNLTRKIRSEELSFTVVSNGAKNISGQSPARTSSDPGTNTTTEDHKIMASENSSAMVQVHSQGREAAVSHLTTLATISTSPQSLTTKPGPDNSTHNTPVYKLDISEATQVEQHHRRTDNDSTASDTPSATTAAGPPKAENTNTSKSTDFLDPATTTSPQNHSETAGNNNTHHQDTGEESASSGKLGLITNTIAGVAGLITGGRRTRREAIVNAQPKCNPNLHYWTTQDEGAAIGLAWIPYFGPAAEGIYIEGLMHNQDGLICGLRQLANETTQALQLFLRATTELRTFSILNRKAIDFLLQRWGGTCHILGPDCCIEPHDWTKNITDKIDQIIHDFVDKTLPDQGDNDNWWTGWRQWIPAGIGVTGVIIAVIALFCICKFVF

In experiment [5] the target is BDBV GP on rVSV particles (Bundibugyo virus (BDBV)).

B1: mAb PE-87 (antibody, V domains shown)
VH: QVQLVQSGVTLVQPGGSLRVSCAASGFTFSSYAMSWVRQAPGKGLEWVSAISGLGGSTYYADSVKGRFTISRDNSKNTLYLQMNSLRAEDTAVYYCAKDHRVWAAGYHFDYWGQGALVTVSS
VL: DIVLTQSPSTLSASVGDRVTITCRASQSISSWLAWYQQKPGEAPKLLISDASSLESGVPSRFSGSGSGTEFTLTISSLQPDDFATYYCQQYYSSPTFGGGTKVEIK
Turning to B1, the “IC50, half-maximal neutralization of viral infectivity (rVSV-GP)” value in experiment [1] amounted to 900 pM; in experiment [2] it was 100 pM; in experiment [3], 800 pM; in experiment [4] it was 1000 pM; in experiment [5], 400 pM.
